Measured values published in patent publication US20200399330A1, “ANTI-LEUKEMIC, ANTI-HIV, AND SIALIDASE ACTIVITIES OF ROYAL-JELLY PROTEINS” (priority 2018, published 2020).
Entries after “also recorded” stand apart in the source; their conditions may differ.

B1: MRJP2: bound protein purified from PF50 by CM-Sephadex ion-exchange chromatography (protein, UniProt O77061 18-452, looked up)
Major royal jelly protein 2: AIVRENSPRNLEKSLNVIHEWKYFDYDFGSEERRQAAIQSGEYDHTKNYPFDVDQWRDKTFVTILRYDGVPSTLNVISGKTGKGGRLLKPYPDWSFAEFKDCSKIVSAFKIAIDKFDRLWVLDSGLVNRTVPVCAPKLHVFDLKTSNHLKQIEIPHDIAVNATTGKGGLVSLAVQAIDLANTLVYMADHKGDALIVYQNADDSFHRLTSNTFDYDPRYAKMTIDGESFTLKNGICGMALSPVTNNLYYSPLASHGLYYVNTAPFMKSQFGENNVQYQGSEDILNTQSLAKAVSKNGVLFVGLVGNSAVGCWNEHQSLQRQNLEMVAQNDRTLQMIAGMKIKEELPHFVGSNKPVKDEYMLVLSNRMQKIVNDDFNFDDVNFRILGANVKELIRNTHCVNNNQNDNIQNTNNQNDNNQKNNKKNANNQKNNNQNDN

Columns and labels:
[1] = system: human T lymphocyte (Jurkat) leukemia cells; test: Anti-leukemic activity, MTT assay and phase-contrast morphology, Jurkat; format: cell-based; conditions: 72 h
Method: (§1) Anti-leukemic activity of RJ and its fractions, Both leukemia cells (NFS-60 and Jurkat) were seeded in RPMI containing 10% FBS as 3000 cells/well in 96 well cell culture plate. Then serial concentrations from the safe dose of each of the tested RJ and its fractions was added and incubated for 72 h in a 5% CO2 incubator at 37° C. The cytotoxic effect of RJ and its fractions in comparison with DOX against both leukemia cell lines were investigated using the MTT assay as described above. Then the concentration that inhibits leukemia cell growth by 50% (IG50 value) was determined for the RJ and each of its fractions and used to select the effective fraction (the lowest IG50 value). The morphological changes of untreated and treated leukemia cells were examined using the phase-contrast microscope.

[2] = system: Jurkat cells; test: Fluorescence microscope investigation of apoptotic cells (EB/AO double staining), Jurkat; format: cell-based, human; conditions: 72 h
Method: (§2) Then leukemia cell apoptosis was investigated by ethidium bromide (EB)/acridine orange (AO) double staining (100 μg/mL for each) and then visualized under the fluorescent phase contrast microscope (Olympus, Japan).

[3] = system: murine myeloid (NFS-60) leukemia cells; test: Anti-leukemic activity, MTT assay and phase-contrast morphology, NFS-60; format: cell-based; conditions: NFS-60, 72 h
Method: as §1

[4] = system: NFS-60 cells; test: Fluorescence microscope investigation of apoptotic cells (EB/AO double staining), NFS-60; format: cell-based, murine; conditions: NFS-60, 72 h
Method: as §2

[5] = system: Jurkat cells; test: Flow cytometric analysis of apoptosis (annexin V/PI), Jurkat; format: cell-based, human; conditions: at IG50, 72 h
Method: (§3) Flow cytometric analysis of apoptosis, RJ, its effective fractions (CPF, PF50, MRJP2, and MRJP2 X1), and DOX at their IG50 was incubated for 72 h with each of the leukemia cell lines. After trypsinization, the untreated and treated cells were incubated with annexin V/propidium iodide (PI) for 15 min. Then cells were fixed and incubated with streptavidin-fluorescein (5 μg/mL) for 15 min. The apoptosis-dependent anti-leukemic effect was determined by quantification of annexin-stained apoptotic cells using the Fluorescein isothiocyanate (FITC) signal detector (FL1) in the flow cytometer (Partec, Germany).

[6] = system: PBMCs; test: Sialidase activity (release of cellular SA), PBMCs; format: cell-based, human; conditions: 2 h and 72 h incubation
Method: (§4) The sialidase catalytic activity of the RJ isolated PFs was evaluated by incubating different concentrations (500, 250, 125, 62.5, 31.25) of each of the RJ-PFs (CPF, PF25, PF30, PF40, PF50, PF60, MRJP2 and MRJP2 isoform X1) with PBMCs or HepG2 cells at 37° C. for 2 h and 72 h. Two controls were included, each PF alone without cells and each cell alone without PF. At the end of the incubation period, the released SA concentration was quantified followed the previously published method.
(§5) Preparation of SA-attached cells, PBMCs were obtained by Ficoll-Hypaque density gradient centrifugation method as described previously. […] Finally, the supernatant was removed and the cells were suspended in 5 ml of RPMI-1640 medium containing 10% FBS and counted using trypan blue stain. […]
(§6) The SA assay, SA concentration was measured by the alkali-Ehrlich method using 0.2 M borate buffer at pH 8.5. After the incubation period (2 h or 72 h), cell culture was centrifuged at 2000 rpm for 15 min and the SA content was quantified in the supernatant. […] The developed violet color was read at 560 nm. The SA concentration (nmol/mL) was calculated from the standard SA calibration curve and used to calculate the sialidase activity of the RJPF as nmol/ml/min (IU). The specific activity (IU/mg protein) was calculated after determination of the protein content (mg/mL) in the supernatant using the Bradford method.

[7] = system: HepG2 cells; test: Sialidase activity (release of cellular SA), HepG2; format: cell-based; conditions: 2 h and 72 h incubation
Method: as §4, §5, §6

[8] = system: Jurkat cells; test: Cell cycle distribution by flow cytometry, Jurkat; format: cell-based, human; conditions: at IG50, 72 h
Method: (§7) Briefly, the untreated and treated leukemia cells were incubated with 5 μg/mL RNase A (Sigma, USA) then mixed with 10 μl of 1 mg/mL PI (Sigma, USA) for flow cytometry analysis at 488 nm using Cell Quist and Mod Fit softwares.

[9] = system: NFS-60 cells; test: Cell cycle distribution by flow cytometry, NFS-60; format: cell-based, murine; conditions: NFS-60, at IG50, 72 h
Method: as §7

[10] = system: NFS-60 cells; test: Flow cytometric analysis of apoptosis (annexin V/PI), NFS-60; format: cell-based, murine; conditions: NFS-60, at IG50, 72 h
Method: as §3

Molecule	IG50 (concentration that inhibits leukemia cell growth by 50%) ([1]; MTT)	apoptotic cell populations by EB/AO double staining [2]	IG50 (concentration that inhibits leukemia cell growth by 50%) ([3]; MTT)	apoptotic cell populations by EB/AO double staining [4]	% apoptotic cells (annexin V/PI) [5]	sialidase activity (released SA) [6]	sialidase activity (released SA) [7]	morphological changes under the phase contrast microscope [1]	cell cycle distribution (G0, G1, S, G2/M) [8]	cell cycle distribution (G0, G1, S, G2/M) [9]	% apoptotic cells (annexin V/PI) [10]	morphological changes under the phase contrast microscope [3]
COc1cccc2c1C(=O)c1c(O)c3c(c(O)c1C2=O)C[C@@](O)(C(=O)CO)C[C@@H]3O[C@H]1C[C@H](N)[C@H](O)[C@H](C)O1 [DOX, Doxorubicin, reference compound]	significantly more potent than the tested fractions	increased the number of the late apoptotic cells	significantly more potent than the tested fractions	increased the number of the late apoptotic cells	–	–	–	–	–	–	–	–
B1	–	increased the number of the late apoptotic cells	–	increased the number of the late apoptotic cells	inducing apoptosis; also recorded: highest percentage of the apoptotic cell populations	proven their sialidase activity	proven their sialidase activity	hallmarks of the apoptosis, which observed obviously	almost completely blocking the cell cycle G0 phase; also recorded: the most effective fraction with the same or higher potency than DOX	almost completely blocking the cell cycle G0 phase; also recorded: the most effective fraction with the same or higher potency than DOX	inducing apoptosis; also recorded: highest percentage of the apoptotic cell populations	hallmarks of the apoptosis, which observed obviously
